Experiment [1] concerns the target human CX3CR1 (human) (UniProt P49238). In words: flow cytometry, chimeric CX3CR1-expressing Ba/F3 cells, 200 nM, grade vs positive antibody (+++ >70%, ++ 40-70%, + 10-40%, - <10%).
For experiment [2], the target named is mouse CX3CR1 (mouse) (UniProt Q9Z0D9). In words: flow cytometry, chimeric CX3CR1-expressing Ba/F3 cells. For orientation: In flow cytometry, cells or beads pass a laser one at a time.
For experiment [3], the target named is rat CX3CR1 (rat) (UniProt P35411). The experiment is described as follows: flow cytometry, CX3CR1-expressing Ba/F3 cells, 200 nM, grade vs positive antibody (+++ >70%, ++ 40-70%, + 10-40%, - <10%); this antibody is itself the 100% reference.
Experiment [4] addresses mouse CX3CR1 (mouse) (UniProt Q9Z0D9). The description is as above.
The target is the same in experiment [5]. In words: flow cytometry, chimeric CX3CR1-expressing Ba/F3 cells, 200 nM, grade vs positive antibody (+++ >70%, ++ 40-70%, + 10-40%, - <10%).
The target in experiment [6] is human CX3CR1 (human) (UniProt P49238). The experiment is described as follows: flow cytometry, chimeric CX3CR1-expressing Ba/F3 cells.
Experiment [7] shares this target. The experiment is described as follows: flow cytometry, CX3CR1-expressing Ba/F3 cells.
For experiment [8], the target named is cynomolgus monkey CX3CR1 (cynomolgus monkey). The experiment is described as follows: flow cytometry, CX3CR1-expressing Ba/F3 cells.

Sequence of human CX3CR1 (human) (P49238 whole entry): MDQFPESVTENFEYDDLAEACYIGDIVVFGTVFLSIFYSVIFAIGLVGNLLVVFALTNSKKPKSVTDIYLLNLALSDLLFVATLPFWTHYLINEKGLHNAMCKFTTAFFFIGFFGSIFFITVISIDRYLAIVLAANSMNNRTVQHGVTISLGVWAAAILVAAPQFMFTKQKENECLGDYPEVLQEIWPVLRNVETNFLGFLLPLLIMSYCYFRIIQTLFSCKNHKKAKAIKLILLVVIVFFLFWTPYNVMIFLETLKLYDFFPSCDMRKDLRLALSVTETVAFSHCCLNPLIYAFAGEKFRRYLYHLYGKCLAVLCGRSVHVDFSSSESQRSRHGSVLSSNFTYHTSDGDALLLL
Sequence of mouse CX3CR1 (mouse) (Q9Z0D9 whole entry): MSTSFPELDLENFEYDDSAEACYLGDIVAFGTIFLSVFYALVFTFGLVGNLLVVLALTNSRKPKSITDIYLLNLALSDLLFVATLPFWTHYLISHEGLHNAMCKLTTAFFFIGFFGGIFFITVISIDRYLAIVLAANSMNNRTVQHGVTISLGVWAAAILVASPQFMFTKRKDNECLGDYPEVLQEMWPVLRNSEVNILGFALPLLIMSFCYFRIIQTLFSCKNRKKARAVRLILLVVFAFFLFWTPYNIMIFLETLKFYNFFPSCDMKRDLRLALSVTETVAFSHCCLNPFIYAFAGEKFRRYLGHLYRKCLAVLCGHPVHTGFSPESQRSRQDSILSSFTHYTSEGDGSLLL
Sequence of rat CX3CR1 (rat) (P35411 whole entry): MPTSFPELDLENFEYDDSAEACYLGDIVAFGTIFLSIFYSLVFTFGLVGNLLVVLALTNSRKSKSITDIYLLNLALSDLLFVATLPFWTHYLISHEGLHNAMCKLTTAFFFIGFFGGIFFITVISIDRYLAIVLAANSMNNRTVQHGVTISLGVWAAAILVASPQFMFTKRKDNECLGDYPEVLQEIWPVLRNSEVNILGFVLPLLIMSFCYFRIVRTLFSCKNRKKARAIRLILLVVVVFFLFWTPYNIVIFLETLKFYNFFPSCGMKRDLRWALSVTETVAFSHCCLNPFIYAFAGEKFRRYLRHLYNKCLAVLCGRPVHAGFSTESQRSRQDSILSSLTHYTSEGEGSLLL

As to “anti-hCX3CR1 antibody K0124E1 (Biolegend)”, the results for the relative value (% reactivity, MFI) compared to positive antibody at 200 nM in experiment [1] and in experiment [2] were 40 to 70% and below 10%, respectively.
Turning to “anti-mouse CX3CR1 antibody SA011F11 (Biolegend)”, the relative value (% reactivity, MFI) compared to positive antibody at 200 nM was above 70% in experiment [3]; above 70% in experiment [4]; above 70% in experiment [5]; below 10% in experiment [6]; below 10% in experiment [7]; below 10% in experiment [8].

(Values after patent EP4640709A1.)
